Read-outs that look alike come from different tables or passages of the source. Starred links: 1 amine or outer side, 2 acyl side, 3 side chain; linkers in the order of their positions; H or OH if unused. Non-standard residues stand in square brackets, D forms with d. Residues, ends and D or L forms follow the SMILES beside them. No end group written: not given here. *: point of attachment. PEG24 = NCCOCCOCCOCCOCCOCCOCCOCCOCCOCCOCCOCCOCCOCCOCCOCCOCCOCCOCCOCCOCCOCCOCCOCCOCCC(=O)O; FITC = O=C1OC2(c3ccc(O)cc3Oc3cc(O)ccc32)c2ccc(NC(=S)*)cc21; PEG12 = NCCOCCOCCOCCOCCOCCOCCOCCOCCOCCOCCOCCOCCC(=O)O; 4Abz(3-OiBu) = CC(C)COc1cc(C(=O)[*:2])ccc1N[*:1]; PEG8 = NCCOCCOCCOCCOCCOCCOCCOCCOCCC(=O)O; X1 = CC(C)Oc1cc(C(=O)[*:2])ccc1N[*:1]; Ahx = NCCCCCC(=O)O

One assay addresses T1, HIF-1α/p300 interaction (Homo sapiens, UniProt Q09472).
T1 construct: made in house
Also noted: method as in 2 sources, ref 33 = [33]; PMID 24782431; doi:10.1002/cbic.201400009; Burslem G. M. Kyle H. F. Breeze A. L. Edwards T. A. Nelson A. Warriner S. L. Wilson A. J. ChemBioChem 2014 15 1083 1087 24782431 10.1002/cbic.201400009 PMC4159589 ||| ref 32 = [32]; PMID 26135796; doi:10.1039/c5mb00284b; Kyle H. F. Wickson K. F. Stott J. Burslem G. M. Breeze A. L. Tiede C. Tomlinson D. C. Warriner S. L. Nelson A. Wilson A. J. Edwards T. A. Mol. BioSyst. 2015 11 2738 2749 26135796 10.1039/c5mb00284b. The settings on record: fluorescence anisotropy competition; prior truncation studies; read-out: IC50, inhibition of the HIF-1α/p300 interaction by HIF-1α peptides; cited from earlier work.

The next assay relates to p53/hDM2 interaction. The assay can be described thus: fluorescence anisotropy competition assay p53/hDM2. Format: binding. The text has this:
At first the lower inhibitory potency of both HIF-1α794–826 and hybrid 2 in comparison to helix mimetic 1 (9.2(±0.9) μM) which we determined previously,[33] might seem counterintuitive. One explanation that might account for this observation is that there may be a non-specific component to PPI inhibition associated with the aromatic oligoamide helix mimetic 1 (supported in part by a non-unity Hill co-efficient for the curve fitting, a property not observed for 2). […] We therefore performed further biophysical analysis. Although we illustrated previously that inhibition of HIF-1α/p300 by 1 was specific to the scaffold and selective in comparison to the eIF4E/4G interaction,[33] we expanded the range of assays here. […] Thus, by adding native amino acid residues from the HIF-1α sequence to the core helix mimetic 1 in hybrid 2, the specificity and selectivity of binding towards target interactions was improved.
Fig. 3 Biophysical screening of helix mimetic 1 and hybrid 2 to profile selectivity; FA competition data for inhibition of p53/hDM2.

Assay [1] has as its target T2, p300 (Homo sapiens, UniProt Q09472). Briefly: fluorescence anisotropy. As to conditions: cited from earlier work.
Target sequence in this assay (Q09472 2-2414): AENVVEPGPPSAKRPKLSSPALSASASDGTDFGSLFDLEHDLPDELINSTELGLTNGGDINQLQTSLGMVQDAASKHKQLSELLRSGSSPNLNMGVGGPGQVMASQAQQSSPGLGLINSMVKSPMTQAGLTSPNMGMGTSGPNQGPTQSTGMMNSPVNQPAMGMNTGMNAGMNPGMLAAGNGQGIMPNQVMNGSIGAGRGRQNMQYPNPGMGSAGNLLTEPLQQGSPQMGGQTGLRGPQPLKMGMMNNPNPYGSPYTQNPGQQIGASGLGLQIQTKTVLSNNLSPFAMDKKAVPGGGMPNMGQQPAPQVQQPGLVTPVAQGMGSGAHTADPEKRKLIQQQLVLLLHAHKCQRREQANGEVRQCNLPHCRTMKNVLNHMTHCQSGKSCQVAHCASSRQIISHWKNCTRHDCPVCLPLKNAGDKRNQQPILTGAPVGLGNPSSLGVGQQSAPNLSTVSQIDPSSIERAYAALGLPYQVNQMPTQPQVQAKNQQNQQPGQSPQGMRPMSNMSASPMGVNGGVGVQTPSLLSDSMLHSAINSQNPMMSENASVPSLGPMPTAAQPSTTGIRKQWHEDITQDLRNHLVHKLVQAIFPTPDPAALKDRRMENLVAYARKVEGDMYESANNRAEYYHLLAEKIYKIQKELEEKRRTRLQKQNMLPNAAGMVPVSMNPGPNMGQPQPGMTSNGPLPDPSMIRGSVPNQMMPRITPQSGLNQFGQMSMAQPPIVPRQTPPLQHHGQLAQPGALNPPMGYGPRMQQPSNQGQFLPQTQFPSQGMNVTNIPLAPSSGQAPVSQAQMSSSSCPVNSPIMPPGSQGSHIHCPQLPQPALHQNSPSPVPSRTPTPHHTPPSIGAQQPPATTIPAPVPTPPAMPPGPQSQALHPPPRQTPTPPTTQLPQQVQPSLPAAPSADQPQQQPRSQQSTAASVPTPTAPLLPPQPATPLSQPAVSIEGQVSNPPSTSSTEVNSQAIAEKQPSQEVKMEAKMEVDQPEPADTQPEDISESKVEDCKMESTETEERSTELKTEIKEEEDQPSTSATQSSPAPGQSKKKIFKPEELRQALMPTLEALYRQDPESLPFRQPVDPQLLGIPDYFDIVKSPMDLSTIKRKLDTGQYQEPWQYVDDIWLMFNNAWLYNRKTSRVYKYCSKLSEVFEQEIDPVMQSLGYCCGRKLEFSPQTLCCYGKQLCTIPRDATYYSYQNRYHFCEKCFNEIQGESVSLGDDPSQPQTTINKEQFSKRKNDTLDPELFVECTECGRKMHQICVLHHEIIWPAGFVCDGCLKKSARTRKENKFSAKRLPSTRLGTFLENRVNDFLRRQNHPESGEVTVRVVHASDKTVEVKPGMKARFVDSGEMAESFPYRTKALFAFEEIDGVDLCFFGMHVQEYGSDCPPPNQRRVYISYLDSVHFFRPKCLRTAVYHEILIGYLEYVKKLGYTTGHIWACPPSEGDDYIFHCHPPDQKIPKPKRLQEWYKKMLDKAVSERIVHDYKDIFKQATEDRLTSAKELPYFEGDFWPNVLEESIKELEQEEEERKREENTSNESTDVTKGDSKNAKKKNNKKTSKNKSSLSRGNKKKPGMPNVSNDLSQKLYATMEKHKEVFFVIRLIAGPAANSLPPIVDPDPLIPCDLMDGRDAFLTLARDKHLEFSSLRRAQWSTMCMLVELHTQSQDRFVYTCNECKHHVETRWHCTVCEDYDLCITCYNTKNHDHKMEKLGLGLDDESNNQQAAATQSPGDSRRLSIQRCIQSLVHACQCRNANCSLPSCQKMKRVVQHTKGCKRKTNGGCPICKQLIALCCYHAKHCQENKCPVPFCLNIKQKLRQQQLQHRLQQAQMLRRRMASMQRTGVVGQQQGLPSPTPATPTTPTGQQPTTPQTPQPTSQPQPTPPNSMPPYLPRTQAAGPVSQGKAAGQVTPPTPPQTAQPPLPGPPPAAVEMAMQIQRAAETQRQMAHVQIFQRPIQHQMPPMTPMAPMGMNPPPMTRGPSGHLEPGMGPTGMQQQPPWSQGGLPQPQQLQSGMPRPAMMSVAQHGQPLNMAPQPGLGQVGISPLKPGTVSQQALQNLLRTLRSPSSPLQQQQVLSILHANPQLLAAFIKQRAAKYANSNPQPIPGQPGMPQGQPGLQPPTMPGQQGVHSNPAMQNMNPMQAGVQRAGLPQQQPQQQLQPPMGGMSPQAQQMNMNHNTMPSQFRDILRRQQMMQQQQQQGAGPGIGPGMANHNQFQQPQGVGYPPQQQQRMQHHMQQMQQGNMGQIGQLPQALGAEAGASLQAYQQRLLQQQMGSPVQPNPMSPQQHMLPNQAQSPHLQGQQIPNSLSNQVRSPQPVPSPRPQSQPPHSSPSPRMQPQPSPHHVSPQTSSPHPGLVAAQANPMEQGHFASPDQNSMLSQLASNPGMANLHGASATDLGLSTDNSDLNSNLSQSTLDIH
Assay [2] concerns the target T2, p300. Briefly: fluorescence anisotropy direct binding to p300. Also noted: made in house. As to conditions: fluorescein-labelled conjugates. How it is done: The hybrids 2 and 3a–c were then tested in a previously described fluorescence anisotropy p300/HIF-1α competition and p300 binding assays respectively (Fig. 2a).[33]
Fig. 2 Biophysical screening of HIF-1α peptides and hybrids, HIF-1α794–826, 2 and 3a–c (a) fluorescence anisotropy (FA) competition data for inhibition of p300/FITC-HIF-1α C-TAD for HIF-1α794–826 and 2 (b) (FA) binding data for 3a–c to p300 (schematic structure shown below).
Binding assays and protein expression were carried out as previously reported. 2, 3
The helix 2-3 peptide and the helix 2-extended peptide were purchased from Proteogenix,
France and the sequences shown below.
(1 picture or pasted object on this page, not shown here)
Target sequence in this assay (Q09472 whole entry, species assumed): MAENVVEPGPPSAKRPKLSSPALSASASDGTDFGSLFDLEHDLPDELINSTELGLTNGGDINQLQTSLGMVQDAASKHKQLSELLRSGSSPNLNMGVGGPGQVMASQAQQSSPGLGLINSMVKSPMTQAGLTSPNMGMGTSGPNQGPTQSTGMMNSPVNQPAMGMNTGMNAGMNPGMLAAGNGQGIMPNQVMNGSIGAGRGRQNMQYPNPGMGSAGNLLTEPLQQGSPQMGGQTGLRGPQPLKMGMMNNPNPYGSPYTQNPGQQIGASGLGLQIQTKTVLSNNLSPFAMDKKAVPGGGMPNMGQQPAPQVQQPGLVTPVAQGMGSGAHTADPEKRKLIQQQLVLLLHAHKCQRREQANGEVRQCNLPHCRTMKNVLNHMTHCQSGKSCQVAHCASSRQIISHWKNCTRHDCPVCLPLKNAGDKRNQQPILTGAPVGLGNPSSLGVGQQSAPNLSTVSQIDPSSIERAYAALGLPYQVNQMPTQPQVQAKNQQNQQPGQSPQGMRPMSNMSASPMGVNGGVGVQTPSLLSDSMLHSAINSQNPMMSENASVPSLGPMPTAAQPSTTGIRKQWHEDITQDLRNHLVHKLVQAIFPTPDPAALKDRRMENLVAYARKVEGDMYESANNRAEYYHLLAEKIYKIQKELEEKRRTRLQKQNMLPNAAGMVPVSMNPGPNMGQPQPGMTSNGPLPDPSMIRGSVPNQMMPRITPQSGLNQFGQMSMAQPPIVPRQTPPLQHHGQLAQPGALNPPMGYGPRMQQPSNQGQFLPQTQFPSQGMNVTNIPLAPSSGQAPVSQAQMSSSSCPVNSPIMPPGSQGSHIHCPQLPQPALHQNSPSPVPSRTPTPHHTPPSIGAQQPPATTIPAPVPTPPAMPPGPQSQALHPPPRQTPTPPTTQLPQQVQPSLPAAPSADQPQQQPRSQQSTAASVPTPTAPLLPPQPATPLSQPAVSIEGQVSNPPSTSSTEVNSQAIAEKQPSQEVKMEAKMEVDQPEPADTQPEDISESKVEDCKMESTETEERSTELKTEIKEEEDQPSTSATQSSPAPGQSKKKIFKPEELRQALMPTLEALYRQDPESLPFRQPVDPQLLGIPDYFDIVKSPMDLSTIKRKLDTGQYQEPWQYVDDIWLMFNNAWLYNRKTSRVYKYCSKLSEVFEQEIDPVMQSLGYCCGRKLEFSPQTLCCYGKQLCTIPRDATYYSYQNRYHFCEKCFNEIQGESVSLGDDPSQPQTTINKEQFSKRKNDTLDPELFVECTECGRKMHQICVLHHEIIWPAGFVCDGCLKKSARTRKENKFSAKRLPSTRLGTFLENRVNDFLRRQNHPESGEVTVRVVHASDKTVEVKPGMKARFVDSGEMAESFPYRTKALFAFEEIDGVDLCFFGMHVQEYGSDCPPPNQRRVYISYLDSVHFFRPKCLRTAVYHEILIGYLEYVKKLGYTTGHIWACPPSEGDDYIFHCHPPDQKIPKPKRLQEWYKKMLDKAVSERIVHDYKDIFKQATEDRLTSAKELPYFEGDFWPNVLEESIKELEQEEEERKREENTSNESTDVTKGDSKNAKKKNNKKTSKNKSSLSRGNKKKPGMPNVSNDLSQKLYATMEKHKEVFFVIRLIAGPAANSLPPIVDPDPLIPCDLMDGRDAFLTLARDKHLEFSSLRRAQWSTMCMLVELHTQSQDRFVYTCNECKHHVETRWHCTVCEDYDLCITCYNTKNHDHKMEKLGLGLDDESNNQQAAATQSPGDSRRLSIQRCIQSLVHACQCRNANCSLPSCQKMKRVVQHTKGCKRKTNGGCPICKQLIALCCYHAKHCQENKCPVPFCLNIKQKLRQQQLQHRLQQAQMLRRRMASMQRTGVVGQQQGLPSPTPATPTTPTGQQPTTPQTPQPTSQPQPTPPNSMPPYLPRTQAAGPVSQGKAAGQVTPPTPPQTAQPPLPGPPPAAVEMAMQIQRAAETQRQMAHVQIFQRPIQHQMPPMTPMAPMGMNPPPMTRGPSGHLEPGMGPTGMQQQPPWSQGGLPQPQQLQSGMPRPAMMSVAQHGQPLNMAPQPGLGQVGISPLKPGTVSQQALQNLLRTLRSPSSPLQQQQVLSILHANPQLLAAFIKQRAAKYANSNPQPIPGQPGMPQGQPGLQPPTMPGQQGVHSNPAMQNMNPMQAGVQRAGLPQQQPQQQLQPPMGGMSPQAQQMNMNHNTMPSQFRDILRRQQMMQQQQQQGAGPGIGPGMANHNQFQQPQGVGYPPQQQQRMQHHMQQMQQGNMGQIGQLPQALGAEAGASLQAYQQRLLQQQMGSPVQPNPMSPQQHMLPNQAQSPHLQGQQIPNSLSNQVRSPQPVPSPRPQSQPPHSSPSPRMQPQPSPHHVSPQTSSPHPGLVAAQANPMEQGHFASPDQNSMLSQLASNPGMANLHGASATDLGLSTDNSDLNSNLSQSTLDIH

Assay [3] has as its target T2, p300. Briefly: fluorescence anisotropy competition. As to conditions: cited from earlier work.
Target sequence in this assay (Q09472 2-2414): as the sequence (Q09472 2-2414) above
For assay [4], the target named is HIF-1α C-TAD 794-826 (Homo sapiens) (UniProt Q16665). Briefly: fluorescence anisotropy. The settings on record: cited from earlier work.
In assay [5] the target is T2, p300. Also noted: made in house. As to conditions: fluorescence anisotropy direct binding; cited from earlier work. The text has this:
A requirement for optimal linker length is supported by the fact that as the length of the PEG linker in 3a–c increases, so does binding affinity. In spite of the weaker binding affinities observed for 3a–c, the weak binding for HIF794–804 (helix 2) and HIF816– ...
Target sequence in this assay (Q09472 whole entry, species assumed): as the sequence (Q09472 whole entry, species assumed) above

T1 sequence (Q09472 330-420 limits assumed): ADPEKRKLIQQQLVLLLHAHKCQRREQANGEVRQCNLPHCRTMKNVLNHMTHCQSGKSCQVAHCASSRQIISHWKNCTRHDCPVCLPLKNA
Chain of p300 (from UniProt Q09472) (Q09472 2-2414): as the sequence (Q09472 2-2414) above

Consider “Ac-QLTSYDCEVNAPIQGSRNLLQ-NH 2 (Ac-QLTSYDCEVNAPIQGSRNLLQ-NH2) [HIF-1α794–815, peptide comprising the same residues as the peptidic region of hybrid 2]”, for which the IC50 with HIF-1α/p300 interaction is above 500 µM.

`CC[C@H](C)[C@H](NC(=O)[C@@H]1CCCN1C(=O)[C@H](C)NC(=O)[C@H](CC(N)=O)NC(=O)[C@@H](NC(=O)[C@H](CCC(=O)O)NC(=O)[C@H](CO)NC(=O)[C@H](Cc1ccc(O)cc1)NC(=O)[C@H](CO)NC(=O)[C@@H](NC(=O)[C@H](CC(C)C)NC(=O)[C@H](CCC(N)=O)NC(C)=O)[C@@H](C)O)C(C)C)C(=O)N[C@@H](CCC(N)=O)C(=O)N[C@@H](CO)C(=O)N[C@@H](CCCNC(=N)N)C(=O)N[C@@H](CC(N)=O)C(=O)N[C@@H](CC(C)C)C(=O)N[C@@H](CC(C)C)C(=O)N[C@@H](CCC(N)=O)C(=O)NCC(=O)NCC(=O)Nc1ccc(C(=O)Nc2ccc(C(=O)Nc3ccc(C(=O)NCC(=O)O)cc3OC(C)C)cc2OCC(C)C)cc1OCC(C)C` [compound 2] (Ac-QLTSYSEVNAPIQSRNLLQGG[4Abz(3-OiBu)][4Abz(3-OiBu)][X1]G-OH): the IC50 in the assay on p53/hDM2 interaction was above 100 µM.

With “FITC-HIF-1α794-826 794-826 (from UniProt Q16665)”, the Kd in the assay with p300 [1] was 6.74 µM.

For `CC(C)C[C@H](NC(=O)[C@H](C)NC(=O)[C@H](CCCNC(=N)N)NC(=O)[C@H](CC(C)C)NC(=O)[C@H](CC(C)C)NC(=O)[C@H](CCC(=O)O)NC(=O)[C@H](CCC(=O)O)NC(=O)CCOCCOCCOCCOCCOCCOCCOCCOCCOCCOCCOCCOCCNC(=O)[C@H](C)NC(=O)[C@H](CC(N)=O)NC(=O)[C@@H](NC(=O)[C@H](CCC(=O)O)NC(=O)[C@H](CS)NC(=O)[C@H](CC(=O)O)NC(=O)[C@H](Cc1ccc(O)cc1)NC(=O)[C@H](CO)NC(=O)[C@@H](NC(=O)[C@H](CC(C)C)NC(=O)[C@H](CCC(N)=O)NC(=O)CCCCCNC(=S)Nc1ccc2c(c1)C(=O)OC21c2ccc(O)cc2Oc2cc(O)ccc21)[C@@H](C)O)C(C)C)C(=O)N[C@@H](CC(=O)O)C(=O)N[C@@H](CCC(N)=O)C(=O)N[C@H](C(=O)N[C@@H](CC(N)=O)C(N)=O)C(C)C` [3b] ({FITC-Ahx}-QLTSYDCEVNA[PEG12]EELLRALDQVN-NH2), at p300 [2], the Kd is above 200 µM.

On to “HIF-1α794-815 794-815 (from UniProt Q16665)”, for which the IC50 with p300 [3] was above 500 µM.

Regarding p300 (from UniProt Q09472), the Kd in assay [4] was 6.74 µM.

Regarding “FITC-HIF-1α794–826: FITC-labelled HIF-1α794–826 peptide ({FITC}-QLTSYDCEVNAPIQGSRNLLQGEELLRALDQVN; UniProt Q16665 794-826, looked up, fragment)”, in the assay with p300 [5], the Kd is 6.74 ± 0.54 µM.

`CC(C)C[C@H](NC(=O)[C@H](C)NC(=O)[C@H](CCCNC(=N)N)NC(=O)[C@H](CC(C)C)NC(=O)[C@H](CC(C)C)NC(=O)[C@H](CCC(=O)O)NC(=O)[C@H](CCC(=O)O)NC(=O)CCOCCOCCOCCOCCOCCOCCOCCOCCNC(=O)[C@H](C)NC(=O)[C@H](CC(N)=O)NC(=O)[C@@H](NC(=O)[C@H](CCC(=O)O)NC(=O)[C@H](CS)NC(=O)[C@H](CC(=O)O)NC(=O)[C@H](Cc1ccc(O)cc1)NC(=O)[C@H](CO)NC(=O)[C@@H](NC(=O)[C@H](CC(C)C)NC(=O)[C@H](CCC(N)=O)NC(=O)CCCCCNC(=S)Nc1ccc2c(c1)C(=O)OC21c2ccc(O)cc2Oc2cc(O)ccc21)[C@@H](C)O)C(C)C)C(=O)N[C@@H](CC(=O)O)C(=O)N[C@@H](CCC(N)=O)C(=O)N[C@H](C(=O)N[C@@H](CC(N)=O)C(N)=O)C(C)C` [3a] ({FITC-Ahx}-QLTSYDCEVNA[PEG8]EELLRALDQVN-NH2): the Kd at p300 [2] is above 200 µM.

For “Ac-LGQSMDESGLPQLTSYDCEVNAPIQGSRNLLQGEELLRALDQVN-NH2 [HIF-1α782–826, 42 residue HIF-1α C-TAD peptide]”, the IC50 with HIF-1α/p300 interaction is 0.59 µM.

With “HIF-1α794-826 794-826 (from UniProt Q16665)”, the IC50 in the assay with p300 [3] was 89 µM.

In the case of `CC(C)C[C@H](NC(=O)[C@H](C)NC(=O)[C@H](CCCNC(=N)N)NC(=O)[C@H](CC(C)C)NC(=O)[C@H](CC(C)C)NC(=O)[C@H](CCC(=O)O)NC(=O)[C@H](CCC(=O)O)NC(=O)CCOCCOCCOCCOCCOCCOCCOCCOCCOCCOCCOCCOCCOCCOCCOCCOCCOCCOCCOCCOCCOCCOCCOCCOCCNC(=O)[C@H](C)NC(=O)[C@H](CC(N)=O)NC(=O)[C@@H](NC(=O)[C@H](CCC(=O)O)NC(=O)[C@H](CS)NC(=O)[C@H](CC(=O)O)NC(=O)[C@H](Cc1ccc(O)cc1)NC(=O)[C@H](CO)NC(=O)[C@@H](NC(=O)[C@H](CC(C)C)NC(=O)[C@H](CCC(N)=O)NC(=O)CCCCCNC(=S)Nc1ccc2c(c1)C(=O)OC21c2ccc(O)cc2Oc2cc(O)ccc21)[C@@H](C)O)C(C)C)C(=O)N[C@@H](CC(=O)O)C(=O)N[C@@H](CCC(N)=O)C(=O)N[C@H](C(=O)N[C@@H](CC(N)=O)C(N)=O)C(C)C` [3c] ({FITC-Ahx}-QLTSYDCEVNA[PEG24]EELLRALDQVN-NH2), at p300 [2], binding was put at a Kd of 144 µM.

The values are drawn from publication PMC4843846, “Towards “bionic” proteins: replacement of continuous sequences from HIF-1α with proteomimetics to create functional p300 binding HIF-1α mimics” (Chemical Communications (Cambridge, England), 2016).
